Test results from US20240026407A1, “MODIFICATION OF SAPONINS” (GLAXOSMITHKLINE BIOLOGICALS SA, priority 2020, published 2024).

Key:
Type in all cases: biochemical, Quillaja saponaria
[1] = Experiment 6-1: screening of rhamnosidases for derhamnosylation of saponins in treated bark extract (2%), QS-17 2296 to QS-18 2150 (PAR %); conditions: TBE 2%, pH 7.5, 30 degC, 18 h; TIC peak area ratio percent of rhamnosylated starting saponin to derhamnosylated product, LCMS/MS; negative controls 4.876, 5.225
[2] = Experiment 6-1: screening of rhamnosidases for derhamnosylation of saponins in treated bark extract (2%), desglucosyl-QS-17 2134 to QS-21 1988 (PAR %); conditions: TBE 2%, pH 7.5, 30 degC, 18 h; TIC peak area ratio percent, LCMS/MS; negative controls 2.719, 2.158
[3] = Experiment 6-1: screening of rhamnosidases for derhamnosylation of saponins in treated bark extract (2%), QS-17 2310 to QS-18 2164 (PAR %); conditions: TBE 2%, pH 7.5, 30 degC, 18 h; TIC peak area ratio percent, LCMS/MS; negative controls 3.061, 2.429
[4] = Experiment 6-2: screening of rhamnosidases for derhamnosylation of saponins in treated bark extract (25%), relative % of Left, Middle and Right Peak by UV HPLC; conditions: TBE 25%, pH 7.4, 19.5 h; for Left Peak: mainly QS-17 family, negative control 24%; for Middle Peak: mainly QS-18 and desglucosyl-QS-17 family, negative control 50%; for Right Peak: mainly QS-21 family, negative control 26%
[5] = Experiment 6-3: screening of rhamnosidases for derhamnosylation of saponins in crude bark extract (80%), relative % of Left, Middle and Right Peak by UV HPLC; conditions: CBE 80%, pH 7.4, 30 degC, 19.5 h; for Left Peak: mainly QS-17 family, negative control 27%; for Middle Peak: mainly QS-18 and desglucosyl-QS-17 family, negative control 48%; for Right Peak: mainly QS-21 family, negative control 26%
Method: Selected variants were expressed and lysed as in the method of experiment 6-1.
Crude bark extract (CBE) solution was adjusted to pH 7.4 by addition of NaOH (2M). 20 uL clarified lysate was transferred into fresh 96 well PCR plates. 80 uL CBE solution (pH 7.4) was added to each well of lysate to a final concentration of 80%. Plates were incubated at 30 degC with shaking for 19.5 h.
Quenched with 100 uL MeCN+2% AcOH and shaken at room temperature for 10 mins prior to centrifugation (10 min, 4 degC) to remove particulates. Samples were analysed by UV HPLC using method of Experiment 4-4.
Three key peaks of interest are apparent using this chromatography: Left Peak (retention time approximately 2.30-2.35 min) comprising mainly QS-17 family components; Middle Peak (retention time approximately 2.37-2.42 min) comprising mainly QS-18 family components and desglucosyl-QS-17 family components; and Right Peak (retention time approximately 2.44-2.50 min) comprising mainly QS-21 family components. Peak identity was supported by MS/MS.
Enzyme mediated hydrolysis of the alpha-O-rhamnosylation at the C2 position of the arabinofuranose moiety of QS-17 family components leads to a decrease in Left Peak and an increase in Middle Peak due to formation of QS-18 family components. Enzyme mediated hydrolysis of the alpha-O-rhamnosylation at the C2 position of the arabinofuranose moiety of desglucosyl-QS-17 family components leads to a decrease in Middle Peak and an increase in Right Peak due to formation of QS-21 family components.
The relative percentage of each peak was determined. A decrease in Left Peak and a concomitant increase in Middle Peak and Right Peak is observed for enzymes active under these conditions.

[6] = Experiment 6-1: specificity of rhamnosidases towards other rhamnose residues (C3 saccharide rhamnose, C28 saccharide rhamnose); conditions: TBE 2%, pH 7.5, 30 degC, 18 h; LCMS/MS; negative controls 0.18, 0.17

Molecule | QS-17 (PAR %) [1] [%] | Peak75 (PAR %) [2] [%] | Peak57 (PAR %) [3] [%] | Left Peak [4] [%] | Middle Peak [4] [%] | Right Peak [4] [%] | Left Peak [5] [%] | Middle Peak [5] [%] | Right Peak [5] [%] | ratio PP/QS-21 [6]
1061 (protein, listed as Rhizobium leguminosarum) MNFQPAAISGNLVSRTWSGDMIAPLSDGGQGTAASFVSKTFEHDGTKLPAELFISALGLYRCFINGVRVGSDLLTPGWTNYDDRLAYQRYDVSNLLKPGLNRIEIWLADGWYRSPLMWGAQAIPNCWGDRIGAIADLIGADGTVLSTDTTWRSGVLPILRSGIYFGEIYDARQENCVETHGTEKLAFDKALLVAHETAAVRELRPLTAVENWTDDEGRTIYDFGQNAGGYIRYTVRGTAGAEVRVEHSEVLGPDRHFDNRNYRTAAAHTVYTLRGNGDETYAPHFTFHGFRYARVTIKGDAKILAIASIPISSVPEPAGGFTSGNALVNRLVENTIWSQRANFVEVPTDCPQRDERLGWTGDAQVFAATACWLSDSQSFLRKYLRDVMADQREDGAVSHFSPDPTRLHPANFPGYAGSTGWGDAIVVIPWVLYTHYGDRAVLSECLESMVRWVDFVWSISDGPLVRPPSRWGDRGFTFGDWLQPVGDNRKPRPTIADDCAATLYHFISTDLLARIAATLGEHALEEKMKQRANEIRRAFTNEFITPAGRLAHNDQTSYALAFLHDLIPAEHRQAAQQHFRQVIIDADYKIGTGFIGTPALLPALTKLGMDDLAEKVFLQEDVPGWLYQVSKGATTIWERWDSMAPDGTIYEPDMNSYNHYAYGAVCQWLFESVAGISPSPSAPGFAEVIVDPAPIPSLSPVSAYHDISQGRIEAGWHCDGKKVTYVLTLPEGCIGWFRPGKRHQNPSLNGEPVVEEAVLAPGTHRLVFSLPNS | 0.245 | 0.230 | 0.029 | 13 | 59 | 28 | 26 | 48 | 27 | 0.19
1001 (protein, listed as Brachybacterium faecium) MNSAPASPADTPSAGAGRPAAQLQDALAITAVEDTGRLPQLVHTVTLAQPRDQVRRAELLATAHGLYEMRIGGAPATESVLNPGWTTYERRLQVQRLDVTAQVRQRPEGLAAADADRLDLEATLADGWWRGDLGFDGGVRYGDDLALLAAVEIEFADGTRQRVVTDESWRSRPSAIMSANIYHGQHEDRRLGLGPETPVRVVEIDRSTLVEQVSPPVLRHESRRPERIWTSPAGRTLVDFGQNLVGWLRFTVTGPEGTEIVLRHAEVLEDGELGTRPLRAARATDRLVLAGDPAGETFEPTFTFHGFRYAEISGWPGELAAEDLEAVVVHSALRRTGWFECSHAGVNQLISNSLWSQRGNFLSVPTDCPQRDERLGWTGDIAAYAATAAFQHDVGDFLHGWLLDLGQEARMNPHGIVPFVVPDLLKPGLGAGDPAAADEGWGTPTAIWGDAAVWVAEALWTAYGDLDRLRAHYPAMVRHLDSVDRALSPSGLWDTGFQFGDWLDPDAPPEAADRAKADKGVVATACLVRSARFAAQAARLLGEEVDARRWQGLAERTLAAFTTAYVHENGTITSDCATVYALAIAFDLLDAGTRPRAAARLAEVVAEAGHRVSTGFAGTPFVTWALSETGHVEEAYRLLLEEGCPSWLYPVSMGATTIWERWDSMLPDGSINPGEMTSFNHYALGAVADWVYQVVLGVRPAAPGYRRIRIQPVPGPGIEWAEGAHDSAAGRIEVSWEHSADGLRGTATIPEGAEAEIVLPDGRARTVGPGRHSF | 0.075 | 0.137 | 0.000 | 14 | 59 | 27 | 31 | 45 | 24 | 0.19
1079 (protein, listed as Lunatimonas lonarensis) MSMIRILSLLFLWMLSFSLVAQSTFSLQKLKVDHQENPLGIETASPVFSWQMQVAGSERGVYQKAYRIQVSDSHGALIWDSQQVSSDRSVGIRYQGEKLRPITAYTWSLTVWNQSDHSQTEIGKFETGWMDSPNAWKNAEWIGGDSEDLVLYAHALAVFKAGVTIQLDQESKSTRAAFLLGGNDVRLMKKNLNILQMESGRDGSYVGFELDISQVNGTEEGLALLHAYRVGYHADDQVGTPFHSMPIPQRLIHEGNKYEPHDLFLECNLGIFQVYLNGTENENKISPNDPSKPSYVAQGLNLNPMGEGGNYINFPLLGDIGFKTDSGQLATFSNLTISNYRRPGNVLFSEAESTISIFDKHPNIRAIAGRYQVGTDNKAVLALEDPSRNAPPMLRTTFTTQAKKIKKARIYATARGIYEMYLNGKRVGQDYFNPGLTQYNKNHQYQIYEVTDALESNAANAWGAWLSEGWWSGHITFSGGNWNFFGDRQSFLGTLLIEYEDGTVQEINTQPQSWKLFTDGPILNGSFFQGEVYDANKESVLTGWSLAQFDDSSWKSAQNVPLEGTTYTGPMTNGTLDYKQLTLSAQNDPTPTIIRRLKAVSMEEVRPGVFVYDMGQNMVGVPKITLSHGHQGDTVILRFAEVKYPDLPAYHPHSGMIMMENIRAALTHDIYIRKGGDEVIQPRFTFHGYRYVEITGIKNAPPLNAVEGLVISSVDSIRSSYTTSNQDVNKLWENITWSMLGNFLSIPTDTPARNERMGWSGDINVFARTSTYLGEVLPFLKRHMMAMRDLQAANGKFADVTPVGNGFGGTLWGSAGIVLPWELFLQYGDTTILEENYEAMKAYLAFLETREDKDSGVQMEGPLGDWLSPEVNKNDNTQFFTAYQAYGYGILHQVAQILGKPTEAATFQAKFASRKKFLMDTYFDARTGKSIHSGVSTQGRGGSTAPGTQKGDPIDTQASYAIPLYLEVIDGDLQEKVLANLIATLARENVDDMGILRPAYSLMTGFIATAAINEAISRYGDPVHAYRLLQQTSYPSWLYSVKNGATTIWERLNSYTVEDGFGGNNSMNSFNHYSFGAVGAWMYMYSLGIQRHPEIPGFKKFRLQPQPDPDGKMTWAKGHYDSMYGRIHSEWKRGVDSWEYKATVPPNTSAVLVLPVKDLERVSEGGKMLTEVLGITLISRENGYITMELSSGSYTFSIE | 0.315 | 0.247 | 0.000 | 14 | 58 | 28 | 25 | 48 | 27 | 0.18
1007 (protein, listed as Modestobacter marinus) MSDPTVTVVRLRTDDDSGLTATANATPRLSWSLAADRSGVLQRGYEVQVAPDPGFADPVSSGEVDSDVVVDHDWPAAPLTSRQVAYWRVRVRTDQGWTAWGEPACVEAALLEDADWTARPVFLAGDRGRDGVGPAPLLRREFELPAEPVSARLYLTALGVHRTTLNGRPVGDELLEPGWTSYRDRLLYATHDVTALLRAGRNVLAGSVGDGWFRGNLGWDRLRDFYGDASALLAQLEVRCADGSTVTVSTDEHWRGGYGAVRAADLYDGCDIDLREEPVGWAEAGFDDAGWEPVGTLPLPAGLSQRALPPVRVLQEIEPQVSELSDGTLAVDAGQNVTGWLRLRVTGPSGARVTVRHAEVLDEKGRLVTTLLRSARATDTVVLAGGTADLEPEFTFHGFRYAEVEVPPGVTVDAVRVAVVASDLRRTGQFSCSNPRVDQLFSNVIWSQRDNFLSIPTDCPQRDERLGWTGDIMAFAPTAAANFDSRAFLDSWLTDVGIEQLPSGGVPMVVPNCLTGEFPSPLPQADGAAGWADAVTVVPAALFRAHGSRDLLRRHVGSMQRWVDYVAGLLAEDGTWSGYLQLGDWLDPNAPPERPFEAVTDRDYVATVFVAHSARLLAATCRELGRGPDADRYAALGDRVAQAAWAKWADLAPTTQTGCALAIVFGSAPDAELPALGDALAGLVRASGGRIGTGFLGTPFVLPALTATGHLAEAYQLLLNEECPGWLYQIRHGATTMWERWDGILADGSVHPGQMADGSTMSSFNHYAYGAVASWLYESVAGLSPAAPGYREVLVAPQPGGGLTRAAASIETEYGPASVGWSTDGATLTVDVTLPPGTTGRFAVPAGWSPQQPVALLGSGQHTLLLTGAGA | 0.104 | 0.043 | 0.009 | 8 | 62 | 30 | 24 | 49 | 27 | 0.19
